Changes are numbered by the printed parent chain.

Experimental findings from patent US20050037012A1 are described below.

Common to all, as to assay: cell-based or functional assay
In assay [1] the target is T1, mouse IL-28 (zcyto24) (mouse) (UniProt Q4VK74).
T1 sequence: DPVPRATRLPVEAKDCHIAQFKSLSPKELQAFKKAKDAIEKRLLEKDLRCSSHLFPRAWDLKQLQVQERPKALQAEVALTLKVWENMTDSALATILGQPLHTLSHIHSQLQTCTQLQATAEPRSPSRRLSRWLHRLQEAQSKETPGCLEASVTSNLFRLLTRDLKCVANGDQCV

The target of assay [2] is human IL-29 (human) (UniProt Q8IU54).
Sequence of human IL-29 (human) (Q8IU54 20-200): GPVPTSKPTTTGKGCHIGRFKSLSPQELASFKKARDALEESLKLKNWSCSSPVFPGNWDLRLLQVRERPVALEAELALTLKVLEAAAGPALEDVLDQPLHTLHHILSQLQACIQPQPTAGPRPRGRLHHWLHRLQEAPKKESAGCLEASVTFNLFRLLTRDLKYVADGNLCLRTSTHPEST
In assay [3] the target is T2, human IL-28A (human) (UniProt Q8IZJ0).
T2 sequence: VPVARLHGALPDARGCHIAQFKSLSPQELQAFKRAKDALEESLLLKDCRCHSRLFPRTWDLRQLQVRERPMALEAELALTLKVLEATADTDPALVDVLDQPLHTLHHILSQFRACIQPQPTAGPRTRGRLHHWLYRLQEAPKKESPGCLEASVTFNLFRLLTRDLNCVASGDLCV

In assay [4] the target is human IL-28 receptor (IL-28 receptor alpha subunit with CRF2-4) on 293 HEK cells (human).
Sequence of human IL-28 receptor (IL-28 receptor alpha subunit with CRF2-4) on 293 HEK cells (human) (Q8IU57 whole entry, chain 1 of 2): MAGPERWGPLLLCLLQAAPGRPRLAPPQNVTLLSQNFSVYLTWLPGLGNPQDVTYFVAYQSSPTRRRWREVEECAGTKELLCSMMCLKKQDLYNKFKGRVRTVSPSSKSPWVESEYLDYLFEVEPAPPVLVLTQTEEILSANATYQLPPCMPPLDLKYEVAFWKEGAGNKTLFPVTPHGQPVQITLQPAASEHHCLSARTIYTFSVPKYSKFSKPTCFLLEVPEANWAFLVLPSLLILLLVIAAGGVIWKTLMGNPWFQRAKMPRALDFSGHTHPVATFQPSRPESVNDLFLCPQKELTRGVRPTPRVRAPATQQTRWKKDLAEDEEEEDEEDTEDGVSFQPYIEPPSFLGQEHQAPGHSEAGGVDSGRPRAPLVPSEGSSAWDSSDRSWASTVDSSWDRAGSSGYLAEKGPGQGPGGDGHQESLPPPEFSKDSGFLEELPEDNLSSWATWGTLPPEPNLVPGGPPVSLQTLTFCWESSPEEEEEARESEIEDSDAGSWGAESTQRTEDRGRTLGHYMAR
Sequence of human IL-28 receptor (IL-28 receptor alpha subunit with CRF2-4) on 293 HEK cells (human) (Q08334 whole entry, chain 2 of 2, further chain): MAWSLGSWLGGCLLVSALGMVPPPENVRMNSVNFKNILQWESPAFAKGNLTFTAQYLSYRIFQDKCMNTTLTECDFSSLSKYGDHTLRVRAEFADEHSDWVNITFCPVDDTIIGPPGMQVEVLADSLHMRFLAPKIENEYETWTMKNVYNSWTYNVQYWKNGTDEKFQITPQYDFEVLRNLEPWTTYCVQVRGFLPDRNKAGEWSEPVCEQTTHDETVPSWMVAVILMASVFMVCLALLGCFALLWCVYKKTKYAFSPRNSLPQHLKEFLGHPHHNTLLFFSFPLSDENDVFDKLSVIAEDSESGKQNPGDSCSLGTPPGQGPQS

Take “human CRF2-4-Fc homodimer soluble receptor (Fc fusion)”: the Percent Inhibition of Ligand-induced ISRE Signaling by Soluble Receptors; 10 ng/ml ligand, 10 micrograms/ml soluble receptor; 293 HEK cells overexpressing zcytor19 in assay [1] was 82%; in assay [2], 79%; in assay [3], 80%.
The corresponding values for “human zcytor19-Fc/human CRF2-4-Fc heterodimer soluble receptor (Fc fusion)” are 47%, 16% and 16%.
For the molecule “zcyto10 (from UniProt Q9NYY1 25-176) (ligand)”, the ISRE-luciferase signaling, fold induction over medium alone; Zcyto10 at 125 ng/ml; 293 cells transfected with ISRE-Luc. and IL-28R (fold induction) in assay [4] was determined as 1.
In the case of “huIL10 (from UniProt P22301 19-178) (ligand)”, in assay [4], the ISRE-luciferase signaling, fold induction over medium alone; HuIL10 at 100 ng/ml; 293 cells transfected with ISRE-Luc. and IL-28R (fold induction) was determined as 0.5.

B1: human IL-28B (ligand)
chain: T2 sequence with H7R, R49K, H51R, M71V, V95G, F112L, Y135H
Consider B1, for which the ISRE-luciferase signaling, fold induction over medium alone; IL-28B at 125 ng/ml; 293 cells transfected with ISRE-Luc. and IL-28R (fold induction) in assay [4] is 104.

B2: murine zcytor19-Ig homodimer soluble receptor (Fc fusion, mouse, UniProt Q8CGK5 21-227, looked up, not shown: a dimerising Fc or GST)
chain: RPRLAPPRNVTLFSQNFTVYLTWLPGLGSPPNVTYFVTYQSYIKTGWRPVEHCAGIKALVCPLMCLKKLNLYSKFKGRVQAASAHGRSPRVESRYLEYLFDVELAPPTLVLTQMEKILRVNATYQLPPCMPSLELKYQVEFWKEGLGSKTLFPDTPYGQPVQIPLQQGASRRHCLSARTVYTLIDIKYSQFSEPSCIFLEAPGDKRA
As for B2, the Percent Inhibition of Ligand-induced ISRE Signaling by Soluble Receptors; 10 ng/ml ligand, 10 micrograms/ml soluble receptor; 293 HEK cells overexpressing zcytor19 in assay [1] came out at 89%; in assay [2] it was 103%; in assay [3] it was 91%.

B3: human zcytor19-Fc homodimer soluble receptor (Fc fusion, not shown: a dimerising Fc or GST)
chain: RPRLAPPQNVTLLSQNFSVYLTWLPGLGNPQDVTYFVAYQSSPTRRRWREVEECAGTKELLCSMMCLKKQDLYNKFKGRVRTVSPSSKSPWVESEYLDYLFEVEPAPPVLVLTQTEEILSANATYQLPPCMPPLDLKYEVAFWKEGAGNKTLFPVTPHGQPVQITLQPAASEHHCLSARTIYTFSVPKYSKFSKPTCFLLEVPEANWA
For the molecule B3, the values for the Percent Inhibition of Ligand-induced ISRE Signaling by Soluble Receptors; 10 ng/ml ligand, 10 micrograms/ml soluble receptor; 293 HEK cells overexpressing zcytor19 in assay [1], in assay [2] and in assay [3] were 90%, 45% and 92%, respectively.
